# US20170152308A1 (Biogen, published 2017)
# Like-named read-outs stand apart in the source and are kept apart here. No end group written: not given here.
# T1: His-huTDP-43 domain I (amino acid residues 2-106) (human)
# T1 construct: Amino terminal His-tagged fragment, E. coli; also called N-terminal domain
# T1 chain: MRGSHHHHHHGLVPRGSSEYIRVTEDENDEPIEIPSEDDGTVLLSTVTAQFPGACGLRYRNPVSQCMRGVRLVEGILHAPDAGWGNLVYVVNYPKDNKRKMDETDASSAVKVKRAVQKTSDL
# T2: His-huTDP-43 domain III (amino acid residues 183-273) (human)
# T2 construct: Amino terminal His-tagged fragment, E. coli
# T2 chain: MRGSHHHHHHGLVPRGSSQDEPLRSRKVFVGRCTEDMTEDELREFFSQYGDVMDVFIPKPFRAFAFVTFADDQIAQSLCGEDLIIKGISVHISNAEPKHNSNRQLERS
# T3: His-huTDP-43 domain II (amino acid residues 99-204) (human)
# T3 construct: Amino terminal His-tagged fragment, E. coli
# T3 chain: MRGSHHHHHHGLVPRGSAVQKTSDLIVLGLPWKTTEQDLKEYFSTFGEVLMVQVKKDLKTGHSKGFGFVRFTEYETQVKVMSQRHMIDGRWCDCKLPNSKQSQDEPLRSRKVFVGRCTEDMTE
# T4: synthetic biotinylated peptide TDP-43 316-343 (human, biotinylated (site not stated))
# T4 construct: On streptavidin-coated plates
# T4 peptide: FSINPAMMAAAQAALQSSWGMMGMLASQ
# T5: synthetic biotinylated peptide TDP-43 316-333 (human, also: biotinylated (site not given here))
# T5 construct: On streptavidin-coated plates
# T5 peptide: FSINPAMMAAAQAALQSS
# T6: synthetic biotinylated peptide TDP-43 316-353 (human, biotinylated (site not stated))
# T6 construct: On streptavidin-coated plates
# T6 peptide: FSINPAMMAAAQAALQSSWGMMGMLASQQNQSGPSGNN
# T7: mutant TDP-43 domain IV (TDP-43 258-414 AMM321GGG) (human, UniProt Q13148 258-414)
# T7 construct: Recombinant
# T7 chain: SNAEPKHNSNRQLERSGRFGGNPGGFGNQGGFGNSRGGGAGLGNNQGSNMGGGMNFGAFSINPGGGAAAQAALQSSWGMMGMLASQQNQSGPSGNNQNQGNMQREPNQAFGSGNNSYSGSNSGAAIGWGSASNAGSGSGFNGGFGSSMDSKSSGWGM
# Legend:
# [1] = molecular target: T8, His-huTDP-43 domain IV (amino acid residues 258-414) (human, UniProt Q13148 258-414); assay: direct ELISA, His-tagged TDP-43 fragments coated at 6.6 ug/ml, OD 450
# T8 construct: Amino terminal His-tagged fragment, E. coli, solubilized in 8 M urea; also called Glycine-rich domain
# Protocol: (§1) Non-specific binding sites were blocked for 1 hr. at room temperature with PBST containing 2% BSA (Sigma, Buchs, Switzerland). Antibodies were incubated 1 hr. at room temperature. Binding was determined using either a donkey anti-human IgGγ-specific antibody conjugated with HRP (Jackson ImmunoResearch, USA) or a goat-anti mouse IgG (H+L)-specific secondary antibody conjugated with HRP (Jackson ImmunoResearch, USA)., followed by measurement of HRP activity in a standard colorimetric assay.
# [2] = molecular target: T1, His-huTDP-43 domain I (amino acid …); assay: as above
# Protocol: as §1
# [3] = molecular target: T2, His-huTDP-43 domain III (amino acid …); assay: as above
# Protocol: as §1
# [4] = molecular target: T9, recombinant full-length His-tagged human TDP-43 (2-414) (human, UniProt Q13148 2-414); assay: direct ELISA, coated antigen
# T9 construct: Amino terminal His tag, made in E. coli, purified in 8 M urea; also called full length TDP-43; full-length TDP-43
# Method in brief: (§2)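 Plates coated overnight at 4° C with full-length TDP-43 at 5 μg/ml in carbonate buffer pH 9.6, with E. coli extract and BSA coated alongside. After blocking with 2% BSA, antibodies incubated 1 hr at room temperature and detected by HRP anti-human IgGγ colorimetric read-out. EC₅₀ from non-linear regression.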
# [5] = molecular target: T9, recombinant full-length His-tagged …; assay: direct ELISA, coated antigen; remark: listed apart in the source
# Method in brief: as §2
# [6] = molecular target: T3, His-huTDP-43 domain II (amino acid …); assay: direct ELISA, coated antigen; direct ELISA, domain coated at 6.6 ug/ml (Example 1, FIG. 2F)
# Protocol: as §1
# (§3) The polypeptides were coated onto ELISA plates at equal coating concentration of 6.6 μg/ml (recombinant TDP-43 and TDP-43 fragments) or 3.3 μg/ml (synthetic peptides). Binding of the human-derived antibodies was determined by direct ELISA.
# [7] = molecular target: T10, 6xHis-SUMO-TDP-43 (220-414) (human, UniProt Q13148 220-414); assay: capture ELISA, antigen held by anti-6xHis antibody
# T10 construct: Captured on the plate by an anti-6xHis antibody; also called 6xHis/SUMO tagged truncated TDP-43; not shown: N-terminal 6xHis and SUMO tags from a modified pET19-b vector
# Method in brief: (§4)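 Anti-6×His antibody captured 6×His-SUMO-TDP-43 (1.7 μM, 1 hr RT) in PBS with 1% BSA, 300 mM arginine and 0.1% PEG 5000, pH 7.5, avoiding direct adsorption. Three-fold antibody titrations were incubated 1 hr RT and detected with HRP anti-human IgG Fc colorimetrically. EC₅₀ from a four-parameter logistic fit.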
# [8] = molecular target: T1, His-huTDP-43 domain I (amino acid …); assay: direct ELISA, coated antigen; direct ELISA, domain coated at 6.6 ug/ml (Example 7, FIG. 5)
# Protocol: as §1
# (§5) Binding of the human-derived antibodies was determined by direct ELISA.
# [9] = molecular target: T11, 6xHis-SUMO-TDP-43 (1-414), properly folded full length (human, UniProt Q13148 1-414); assay: capture ELISA, antigen held by anti-6xHis antibody
# T11 construct: Purified with KSCN and arginine, monomeric; captured on the plate by an anti-6xHis antibody; also called folded full-length TDP-43; 6xHis/SUMO tagged full length TDP-43; not shown: N-terminal 6xHis and SUMO tags from a modified pET19-b vector
# Method in brief: as §4
# [10] = molecular target: T1, His-huTDP-43 domain I (amino acid …); assay: direct ELISA, coated antigen; direct ELISA, domain coated at 6.6 ug/ml (Example 7, FIG. 5M)
# Protocol: as §1, §5
# [11] = molecular target: T8, His-huTDP-43 domain IV (amino acid …); assay: direct ELISA, TDP-43 fragments coated at 6.6 ug/ml, OD 450
# Protocol: as §1
# [12] = molecular target: T3, His-huTDP-43 domain II (amino acid …); assay: as above
# Protocol: as §1
# [13] = molecular target: T2, His-huTDP-43 domain III (amino acid …); assay: as above
# Protocol: as §1
# [14] = molecular target: T1, His-huTDP-43 domain I (amino acid …); assay: direct ELISA, coated antigen; direct ELISA, domain coated at 6.6 ug/ml (Example 1, FIG. 2H)
# Protocol: as §1, §3
# [15] = molecular target: T3, His-huTDP-43 domain II (amino acid …); assay: direct ELISA, His-tagged TDP-43 fragments coated at 6.6 ug/ml, OD 450
# Protocol: as §1
# [16] = molecular target: T4, synthetic biotinylated peptide TDP-43 …; assay: direct ELISA, biotinylated peptide on streptavidin plate
# [17] = molecular target: T5, synthetic biotinylated peptide TDP-43 …; assay: as above
# [18] = molecular target: T6, synthetic biotinylated peptide TDP-43 …; assay: as above
# [19] = molecular target: T12, TDP-43 C terminal fragment 258-319 (human, UniProt Q13148 258-319); assay: direct ELISA, coated fragments
# T12 construct: Recombinant fragment
# [20] = molecular target: T13, TDP-43 C terminal fragment 340-414 (human, UniProt Q13148 340-414); assay: direct ELISA, coated fragments
# T13 construct: Recombinant fragment
# [21] = molecular target: T14, BSA (bovine, UniProt P02769); assay: direct ELISA, BSA coated at 5 ug/ml as control, OD 450
# T14 construct: control coating in the EC50 ELISA; also called bovine serum albumin (Sigma, Buchs, Switzerland)
# T14 sequence (P02769 25-607 limits assumed): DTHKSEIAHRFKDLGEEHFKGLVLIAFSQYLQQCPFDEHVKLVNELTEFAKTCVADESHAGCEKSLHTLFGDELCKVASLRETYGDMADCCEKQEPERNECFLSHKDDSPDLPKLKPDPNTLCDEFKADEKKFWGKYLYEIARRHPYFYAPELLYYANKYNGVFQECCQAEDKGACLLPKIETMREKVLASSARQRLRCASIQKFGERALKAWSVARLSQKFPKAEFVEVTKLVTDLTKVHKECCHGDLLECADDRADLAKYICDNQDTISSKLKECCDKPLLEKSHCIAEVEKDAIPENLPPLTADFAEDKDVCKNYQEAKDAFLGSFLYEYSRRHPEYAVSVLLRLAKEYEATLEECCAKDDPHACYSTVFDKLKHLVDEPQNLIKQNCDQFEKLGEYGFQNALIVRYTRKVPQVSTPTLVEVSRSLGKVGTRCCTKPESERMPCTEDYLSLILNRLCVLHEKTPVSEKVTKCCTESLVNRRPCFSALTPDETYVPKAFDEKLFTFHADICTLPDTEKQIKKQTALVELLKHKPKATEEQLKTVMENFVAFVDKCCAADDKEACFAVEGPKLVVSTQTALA
# Protocol: To determine the half maximal effective concentration (EC₅₀) of the human-derived TDP-43-specific antibodies for human TDP-43 and to evaluate target-specificity, 96 well microplates (Corning) were coated with recombinant full length TDP-43 (Biogen Idec, USA), Escherichia coli extract and BSA (Sigma, Buchs, Switzerland), diluted to a concentration of 5 μg/ml in carbonate ELISA coating buffer (pH 9.6) overnight at 4° C. […] Non-specific binding sites were blocked for 1 hr. at room temperature with PBS containing 2% BSA (Sigma, Buchs, Switzerland). Human TDP-43-specific antibodies were diluted to the indicated concentrations and incubated 1 hr. at room temperature. Binding was determined using a donkey anti-human IgGγ-specific secondary antibody conjugated with HRP (Jackson ImmunoResearch, USA), followed by measurement of HRP activity in a standard colorimetric assay. EC₅₀ values were estimated by a non-linear regression using GraphPad Prism software (San Diego, USA).
# The half maximal effective concentration (EC₅₀) of the human-derived TDP-43-specific antibodies for human TDP-43 and their target target-specificity was determined substantially as described in Example 2 above. […]
# [22] = molecular target: T1, His-huTDP-43 domain I (amino acid …); assay: direct ELISA, TDP-43 fragments coated at 6.6 ug/ml, OD 450
# Protocol: as §1
# [23] = molecular target: T7, mutant TDP-43 domain IV (TDP-43 258-414 …); assay: direct ELISA, coated antigen
binder,measurement,setting,value
"NI-205.113C4 (antibody, human IgG1, V domains shown, Human-derived) VH: QVQLVQSGAEVKKPGASVKVSCKASGYTFTNYYMHWVRQAPGQGLEWMGIINPSGGRTSYAQKFQGRASMTRDTSTSTVYMEVISLRSEDTAVYYCARQRPSGYSGYGPSESYGNPTDDAFDVWGQGTTVTVSS VL: SYVLTQPPSVSVAPGQTARITCGGNNIGSRGVHWYQQRPGQAPVLVVYDDSDRPSGIPERFSGSNSGDTATLTISRVEVGDEADYYCQVWDNSSDHLVVFGGGTKLTVL",binding result,[1],no binding
same,binding result,[2],no binding
same,binding result,[3],no binding
same,EC50,[4],13.2 nM
same,EC50,[5],13.2 nM
same,binding result,[6],binds
same,binding result,[7],no binding
"NI-205.29E11 (antibody, human IgG1, V domains shown, Human-derived) VH: QVQLVQSGAEVKKPGASVKVSCKASGYIFTDYFIHWIRQAPGQGLEWMGWIKPKSGGTDYAEKFQGRVTLTRDTSITTVYMELSRLNSDDTAVYYCARLKYSVPDSDYWGQGTLVTVSS VL: DVVMTQSPLSLPVTLGQSASISCRSSQGLVHSDGNTYLNWFHQRPGQSPRRLIYKVFNRDSGVSDRFSGSGSGSDFTLMISRVEAEDVGIYYCMQGTLWPLTFGQGTKVEIK",binding result,[8],binds
same,EC50,[4],10.4 nM
same,EC50,[7],> 97 nM
same,EC50,[9],> 100 nM
"NI-205.8C10 (antibody, human IgG1, V domains shown, Human-derived) VH: EVQLVESGGGLVNPGGSLRLSCTASGFSFSTYSMNWVRQAPGKGLEWVSLITSSGSYIYYADSVKGRFTISRDDAKNSLYLQMNSLRAEDTAVYYCANMLAAAGSHYFHYWGQGTLVTVSS VL: not shown",EC50,[4],15.6 nM
same,binding result,[10],binds
same,binding result,[11],no binding
same,binding result,[12],no binding
same,binding result,[13],no binding
"NI-205.87E7 (antibody, human IgG1, V domains shown, Human-derived) VH: EVQLLESGGGLVQPGGSLRLSCAASGFTFSSYAMSWVRQAPGKGLEWVSAISGGGDRTYSADSVKGRFTISRDNSKNTLYLQINSLRVEDTAVYYCAQGGGGEMTAVTMDGTYYGMDVWGQGTTVTVSS VL: QSALTQPRSVSGSPGQSITISCTGTSSNVGTYKFVSWYQQHPGKAPKLMIYDVTKRPSGVPDRFSGSKSGNTASLTISGLQAEDEADYYCCSYAGSYTYVFGSGTKVTVL",binding result,[14],binds
same,binding result,[1],no binding
same,binding result,[15],no binding
same,binding result,[3],no binding
same,EC50,[4],17.2 nM
same,EC50,[5],17.2 nM
same,binding result,[7],no binding
"NI-205.41D1 (antibody, human IgG1, V domains shown, Human-derived; also called NI-41D1) VH: EVQLVESGGGLVQPGGSLRLSCAASGFTFSTYYMSWVRQAPGKGLEWVANIKQDGSEKYYVDSVKGRFTISRDNARNSLYLQMHSLRAEDTAVYYCASPPGWWGQGTLVTVSS VL: DIVMTQTPLSLSVTPGQPASISCKSSQSLLHSDGKTYLYWYLQKPGQPPQLLIYEVSNRFSGVPDRFSGSGSGTDFTLKISRVEAEDVGVYYCMQSIQLPVTFGGGTKVEIK",binding result,[16],binds
same,binding result,[17],no binding
same,binding result,[18],binds
same,binding result,[19],no binding
same,binding result,[20],no binding
same,binding result,[21],no binding (tested: about 4x10^5 pM)
same,binding result,[22],no binding
same,binding result,[23],no binding
same,EC50,[7],0.1 nM
